Test results reported in article doi:10.1101/2021.11.04.467353, “SHIP164 is a Chorein Motif Containing Lipid Transport Protein that Controls Membrane Dynamics and Traffic at the Endosome-Golgi Interface” (bioRxiv, 2021).

B1: 3XFLAG-SHIP164^Δ901-1099 (natural protein)
chain: not shown
notes: SHIP164 (UHRF1BP1L), human, codon-optimised ORF from Genscript, lacking the predicted unstructured segment residues 901-1099; also called 3×FLAG-SHIP164_(Δ901-1099); UHRF1BP1L; source: Expi293F, transfected, purified (anti-FLAG M2 resin, Superdex 200 gel filtration); not shown: 3xFLAG, N-terminal, kept
B2: MBP-SHIP164 fusion (MBP fused to the N-terminus of SHIP164_(Δ901–1099)) (natural protein)
chain: not shown
notes: SHIP164 (UHRF1BP1L), human, codon-optimised ORF, lacking residues 901-1099; Probably expressed in Expi293F and purified like m1, and it may also carry a 3xFLAG tag

Target: the molecule itself
Test: negative-stain electron microscopy; 2D class averages of negatively stained purified protein; 3XFLAG-SHIP164_(Δ901-1099) at 50 nM, 2% uranyl acetate; the MBP fusion locates the N-termini at the two ends of the rod

Row | Protein | stoichiometry N
1 | B1 | 2
2 | B2 | 2
